Measured values: publication PMC7094341

Legend:
[1] = target: SARS-CoV papain-like protease (PLpro), trypsin-trimmed product of P-PLpro(C2)-His6 (SARS-CoV)
[2] = target: SARS-CoV papain-like protease (PLpro), trypsin-trimmed product of P-PLpro(C2)-His6 (SARS-CoV); remark: listed apart in the source

ISG15(C)-AMC, sequence (P05161 82-157): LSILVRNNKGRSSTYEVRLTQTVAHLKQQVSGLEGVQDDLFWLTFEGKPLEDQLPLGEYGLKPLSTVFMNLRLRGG

Row | Substance | kcat/KM of hydrolysis of Ub-AMC by PLpro (fluorescence, pH 7.8, 25 °C) [1] [M⁻¹ s⁻¹] | kcat/KM of hydrolysis of ISG15(C)-AMC by PLpro (fluorescence, pH 7.8, 25 °C) [2] [M⁻¹ s⁻¹]
1 | Ub-7-amino-4-methylcoumarin | 19800 | 
2 | ISG15(C)-AMC (from UniProt P05161 82-157) (domain or fragment) |  | 94000
